Values of other authors, collected in patent publication US10669306B2, “Solid supports for use in solid-phase peptide synthesis, kits, and related methods” (UNIVERSITY OF WASHINGTON, priority 2016, dated 2020).

Target: integrin αvβ3 receptor (Homo sapiens, UniProt P05106+P06756)
Conditions: cyclic form; Prante, O., et al. Bioconjug. Chem. 2007, 18, 254

integrin αvβ3 receptor, sequence (P06756 31-889 limits assumed): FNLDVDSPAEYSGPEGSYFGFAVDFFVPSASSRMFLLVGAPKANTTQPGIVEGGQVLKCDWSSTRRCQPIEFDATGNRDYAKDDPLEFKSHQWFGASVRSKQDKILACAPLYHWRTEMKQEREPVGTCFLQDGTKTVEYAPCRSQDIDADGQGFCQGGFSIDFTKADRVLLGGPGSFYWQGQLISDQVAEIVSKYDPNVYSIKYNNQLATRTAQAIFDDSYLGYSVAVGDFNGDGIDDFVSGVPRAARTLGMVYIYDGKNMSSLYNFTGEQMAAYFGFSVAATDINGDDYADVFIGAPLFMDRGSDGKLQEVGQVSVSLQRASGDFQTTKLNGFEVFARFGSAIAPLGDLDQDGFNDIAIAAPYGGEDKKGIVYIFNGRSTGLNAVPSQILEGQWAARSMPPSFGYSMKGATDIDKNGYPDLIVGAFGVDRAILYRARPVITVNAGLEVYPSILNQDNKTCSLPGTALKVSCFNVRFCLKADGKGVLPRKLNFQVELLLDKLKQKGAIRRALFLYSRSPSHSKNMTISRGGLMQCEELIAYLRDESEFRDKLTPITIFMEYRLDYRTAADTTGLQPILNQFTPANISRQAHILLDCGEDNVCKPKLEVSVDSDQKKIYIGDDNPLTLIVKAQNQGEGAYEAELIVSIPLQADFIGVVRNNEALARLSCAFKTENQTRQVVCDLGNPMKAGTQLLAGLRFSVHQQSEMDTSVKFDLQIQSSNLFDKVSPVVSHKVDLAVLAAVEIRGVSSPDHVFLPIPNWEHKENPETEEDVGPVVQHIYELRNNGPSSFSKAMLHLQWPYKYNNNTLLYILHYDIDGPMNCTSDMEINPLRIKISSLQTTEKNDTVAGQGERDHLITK
integrin αvβ3 receptor, sequence (P06756 891-1048 partner limits assumed): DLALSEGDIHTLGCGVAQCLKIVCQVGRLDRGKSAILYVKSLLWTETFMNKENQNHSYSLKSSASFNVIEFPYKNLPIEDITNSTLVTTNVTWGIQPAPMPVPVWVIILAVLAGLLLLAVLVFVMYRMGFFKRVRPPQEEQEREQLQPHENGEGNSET
integrin αvβ3 receptor, sequence (P05106 27-788): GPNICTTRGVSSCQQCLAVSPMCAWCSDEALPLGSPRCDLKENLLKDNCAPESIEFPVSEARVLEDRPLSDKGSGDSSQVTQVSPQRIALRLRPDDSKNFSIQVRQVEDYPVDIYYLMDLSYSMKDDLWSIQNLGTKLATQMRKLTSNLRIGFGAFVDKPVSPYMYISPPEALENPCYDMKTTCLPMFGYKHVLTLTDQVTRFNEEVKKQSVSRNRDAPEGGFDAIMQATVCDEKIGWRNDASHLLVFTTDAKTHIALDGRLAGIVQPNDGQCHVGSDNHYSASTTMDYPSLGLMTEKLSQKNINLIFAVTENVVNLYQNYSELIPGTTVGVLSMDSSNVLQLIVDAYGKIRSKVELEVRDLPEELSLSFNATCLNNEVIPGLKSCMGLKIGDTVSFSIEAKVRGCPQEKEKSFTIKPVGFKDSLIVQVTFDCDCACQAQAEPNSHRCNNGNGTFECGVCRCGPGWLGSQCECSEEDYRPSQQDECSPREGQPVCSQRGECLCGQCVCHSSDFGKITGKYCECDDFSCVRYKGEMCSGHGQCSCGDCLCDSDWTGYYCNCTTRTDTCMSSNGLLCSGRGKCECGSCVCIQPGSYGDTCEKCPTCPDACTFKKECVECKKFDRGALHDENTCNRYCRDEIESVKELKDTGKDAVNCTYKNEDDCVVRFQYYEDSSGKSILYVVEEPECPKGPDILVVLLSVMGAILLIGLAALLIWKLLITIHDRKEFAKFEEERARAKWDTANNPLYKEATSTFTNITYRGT

binding affinity for integrin αvβ3 receptor: nanomolar affinity
Substance: CRGD(D-F): Cyclic CRGD(D)-F, a commercially available integrin binding peptide (ANASPEC)
